Reference: the RNAGym collection of RNA variant scans (doi:10.7554/elife.80360)

B1: Hairpin Ribozyme (parent)
chain: GUCCUCUUUCACGUGCGCGUGAAAGAGAGAAGUGAACCAGAGAAACACACGUUGUGGUAUAUUACCUGGUA

Variants of: B1
Experiment: self-cleavage, relative activity (ratio to wild type); higher = more cleavage; co-transcriptional

Variant	self-cleavage
UUCCUCUUUCACGUGCGCGUGAAAGAGAGAAGUGAACCAGAGAAACACACGUGGUGGUAUAUUACCUGGUA [G1U U53G]	0.227
GUCCUCCUUCACGUGCGCGUGAAAGAGAGAAGUGAACCAGAGAAACACACGUUGUGGUAUAUUACCUGGGA [U7C U70G]	0.877
GUCCUCUUCCACGUGCGCGUGAAAGAGAGAAGUGAACCAGAGAACCACACGUUGUGGUAUAUUACCUGGUA [U9C A45C]	0.121
GUCCUCUUUCACGUGCGCGUGAAAGGGAGAUGUGAACCAGAGAAACACACGUUGUGGUAUAUUACCUGGUA [A26G A31U]	0.183
GUGCUCUUUCACGUGCGCGAGAAAGAGAGAAGUGAACCAGAGAAACACACGUUGUGGUAUAUUACCUGGUA [C3G U20A]	0.222
GUCCUCUUUCACGUGCGCGUGAAAGAGAGAAUUGAACCAGAGAAACACACGUUGUGGUAUAGUACCUGGUA [G32U U62G]	0.182
GUCCGCUUUCACGUGCGCGUGAAAGAGAGAAGUGAUCCAGAGAAACACACGUUGUGGUAUAUUACCUGGUA [U5G A36U]	0.0604
GUCCUCUUUCACGUGCGCGUGAAAGAGAGAAGUGAACCAGAGACAAACACGUUGUGGUAUAUUACCUGGUA [A44C C46A]	0.141
GUCCUCUUUCACGUGCGCGUGAAAGAGAGAAGUGAACCAGAGAAACACACGAUGUGGUAUAUUACCUGAUA [U52A G69A]	0.464
GUCCUCUUUCACGUGCGCGUGAAAGAGAGUAGUGAACCAGAGAAACUCACGUUGUGGUAUAUUACCUGGUA [A30U A47U]	0.0724
GUCCUCUUUCACGUGCACGUGAAAGAGAGAAGUGAACCAGAGAAAUACACGUUGUGGUAUAUUACCUGGUA [G17A C46U]	0.143
GUCCUCUUUCACGUGCGCGUGAAAGAGAGAACUGAACCAGAGAAACACACGUUGUGGUAUAUAACCUGGUA [G32C U63A]	0.208
GUCCUCUUUCACGAGCGCGUGAAAGAGGGAAGUGAACCAGAGAAACACACGUUGUGGUAUAUUACCUGGUA [U14A A28G]	1.2
GUCCUCUUUCACGUGCGCGUGAAAGAGAGAAGUGAACCAGAGAAACACACGCUGUGGUAUAUUGCCUGGUA [U52C A64G]	0.546
GUCCUCUUUCACGUGCGCGUGAAAGAGAGAAGUGAACCAGAGGAACACACCUUGUGGUAUAUUACCUGGUA [A43G G51C]	0.107
GUCCUCUUUCACGUGCGCGUGAAAGAGAGAAGUGAACCAGAGAAACACAUGCUGUGGUAUAUUACCUGGUA [C50U U52C]	0.343
GUCCUCUUUAACGUGCGCGUGAAAGAGAGAAGGGAACCAGAGAAACACACGUUGUGGUAUAUUACCUGGUA [C10A U33G]	0.114
GUCCUCUUUCACGUGCGCGUGAAACAGAGAAGUGAACUAGAGAAACACACGUUGUGGUAUAUUACCUGGUA [G25C C38U]	0.263
GUCCUCUUUCACGUGCGCGUGAAAGAGAGAAGUGAACCAGAGUAACACACGUUGUGGUAUAUUACCUGGUG [A43U A71G]	0.247

Variant	self-cleavage
GGCCUCUUUCACGUGCGCGUGAGAGAGAGAAGUGAACCAGAGAAACACACGUUGUGGUAUAUUACCUGGUA [U2G A23G]	0.318
GUCCUCUUUCACGUGCGCGUGAAAGAGAGAAGUUAACCAGACAAACACACGUUGUGGUAUAUUACCUGGUA [G34U G42C]	1.17
GUCCUCUUUCAUGUGCGCGUGAAAGAGAGAAGUGAACCAGAGAAACACACGUUGUGGUAUAUUACCUGUUA [C12U G69U]	0.153
GUUCUCUUUCACGUGCGCGUGAAAGAGAGAAGUGAACCAGAGAAACACACGUUGUGGUAUAUUACCUGGAA [C3U U70A]	0.305
GUCCUCUUUCACGUGCGCGUGAAAAAGAGAGGUGAACCAGAGAAACACACGUUGUGGUAUAUUACCUGGUA [G25A A31G]	0.127
GUCAUCUUUCACGUGCGCGAGAAAGAGAGAAGUGAACCAGAGAAACACACGUUGUGGUAUAUUACCUGGUA [C4A U20A]	0.0852
GUCCUCUUUCACGUGCGCGUUAAAGAGAGAAGUGAACCAGAGAAAUACACGUUGUGGUAUAUUACCUGGUA [G21U C46U]	0.128
GUCCUCUUUCACGUACGCGUGAAAGAGAGAAGUGAACCAGAGAAAAACACGUUGUGGUAUAUUACCUGGUA [G15A C46A]	0.132
GUACUCUUUCACGUGCGCGUGAAAGAGAGAAGUGAACCAGAGAAACACACGUUGUGGUAUAUUAGCUGGUA [C3A C65G]	0.314
GUCCUCUUUCACGUGCGCGUGAAAGAGAGAAGUGAACCCGAGAAACACACGUUGUGGUAUUUUACCUGGUA [A39C A61U]	0.125
GUCAUCUUUCACGUGCGCGUGAAAGAGAGAAGUGAACCAGAGAAACACACGUUCUGGUAUAUUACCUGGUA [C4A G54C]	0.133
GUCCUCUUUCACGUGCGCGUGAACGAGAGAAGUGAACCAGAGAAACACACGUUGAGGUAUAUUACCUGGUA [A24C U55A]	0.267
GUCCUCUUUCACGUGCGCGUAAAAGAGAGAAGUGAACCAGUGAAACACACGUUGUGGUAUAUUACCUGGUA [G21A A41U]	1.07
GUCCUCUUUCACGUGCGCGUGAAAGAGAGAAAUGAACCAGAGAAACACACGUUGUGGUAUACUACCUGGUA [G32A U62C]	0.128
GUCCUCUUUCUCGUGCGCGUGAAAGAGACAAGUGAACCAGAGAAACACACGUUGUGGUAUAUUACCUGGUA [A11U G29C]	0.0923
GUCCUCUUUCACGUGCGCGUGAAAGAAAGAAGGGAACCAGAGAAACACACGUUGUGGUAUAUUACCUGGUA [G27A U33G]	0.0835
GUUCUCUUUCACGUGCGCGUGAAAGAGAGAAGUGAACCAGAGAAACAGACGUUGUGGUAUAUUACCUGGUA [C3U C48G]	0.159
GUCCGCUUUCACGUGAGCGUGAAAGAGAGAAGUGAACCAGAGAAACACACGUUGUGGUAUAUUACCUGGUA [U5G C16A]	0.435
GUCCUCUUUCACGUGCGCGUGAAAGAGAGCAGUGGACCAGAGAAACACACGUUGUGGUAUAUUACCUGGUA [A30C A35G]	0.217
